In patent publication US20090162848A1, “Noxin, a novel stress-induced gene involved in cell cycle and apoptosis” (COLD SPRING HARBOR LABORATORY, priority 2007, published 2009):

Legend:
[1] = system: MEFs from p53-deficient mice; assay: DNA synthesis in p53-deficient MEFs expressing noxin; format: cell-based, mouse
Method: Noxin action was also analyzed in p53-deficient MEFs.

NIH3T3 cells [2] = assay: BrdU incorporation (DNA synthesis) in transfected versus untransfected NIH3T3 cells; format: cell-based, mouse; settings: BrdU labeling for 24 h
Method: In addition, constructs coding for cyan fluorescent protein with a nuclear localization signal (CFP-nuc), yellow fluorescent protein fused to actin (YFP-actin), or vector construct alone were used as controls. Cells were then labeled with BrdU for 24 h and analyzed cells in situ by immunocytochemistry for BrdU and noxin (or other listed proteins) (FIG. 11A-C). In the figures, signals from anti-FLAG antibodies are seen in red; anti-BrdU antibodies are green; Hoechst 33342 (blue) was used for nuclear counter-staining. […] Recombinant protein was detected on a Western blot using the anti-FLAG antibody.

NIH3T3 cells [3] = assay: Cell cycle distribution of pFLAG-noxin transfected cells by flow cytometry; format: cell-based, mouse; settings: anti-FLAG staining, DNA content
Method: After transfection with pFLAG-noxin or pcDNA3 vector, cell division was arrested with three different treatments (nocodazole, aphidicolin, or low concentration of serum). Cells were stained with anti-FLAG antibody and FITC-conjugated anti-mouse IgG antibody after permeabilization. Cell cycle distributions of untransfected and transfected cells were analyzed by DAPI staining and flow cytometry.

p53 = p53 levels in transfected cells by immunocytochemistry and flow cytometry; format: cell-based
Method: The cells were labeled with […] (BrdU) (10 μM) and incubating for the time periods indicated. The cells were collected from plates by trypsin digestion were suspended in saline and fixed with 70% ethanol. After washing with PBS containing 0.05% BSA, 1×10^6 cells were incubated with FITC-conjugated anti-BrdU antibody (Pharmingen, 1:500) for 1 hr, suspended in PBS-BSA with 5 μg/ml propidium iodide (PI) and 20 μg/ml RNase A, and incubated further for 30 min at room temperature. For the bivariate cell cycle analysis, cells were analyzed using LSRII flow cytometer ([…]). […] Cells were analyzed for PE, FITC, and GFP fluorescence by flow cytometry.
Cells were transfected with pFLAG-noxin- or GFP-expressing plasmids and the levels of p53 were determined using immunocytochemistry and flow cytometry. […] 13a-c: which were stained with anti-FLAG and anti-p53 primary antibodies and ALEXA Fluor 596- and 488-conjugated secondary antibodies, respectively. […] 14a-d: Cells transfected with pFLAG-noxin (upper panels) and pEGFP (taken as control; lower panels) that were stained with anti-FLAG and anti-p53 primary antibodies, and PE- and FITC-conjugated secondary antibodies. Then Noxin-FLAG- or EGFP-negative (left panels) and positive (right panels) cells were analyzed for the amount of p53 protein.

B1: noxin: noxin tagged with the FLAG epitope at its N-terminus, expressed from plasmid pFLAG-noxin (mouse, SEQ ID NO: 2) (protein)
chain: MNKRRKFLFASVLAVQNSNFIYPSCQRCFSKIILESKRFTCPKCGSSGDTGSTNYRYKLSLKVAESSKLFFITVFGSCLDTFFGLTATGLHRYLEDSIKNLETLDSGRTQSLLTTAVEKCFVGQSFVFGVTNFGDVCGHDSDSSNFQQPCCKHRGEVRTLVASQIILPSPHVKGFTVIAYLHPLLHKKPHCGSQEHSSQSLTSDDSDSDLNNIQGSGNTSWFSESSVGEDFFRYWEPSLELTSSDSQVTSSDDFPASKQIMASGTPNQNRHCISVSEVTSSKNCHDSLQSLWSLHSCMDKNNTTGKLGEELGLPSPVCNSCHESRLSDSHFFPSQMQEPFEEHNLECYSKAEKNDYSQYDIACYQHHEVNTTPILQQRSSAFSLSSLKPEETANPSQNSDSLIWDDLPLSESLNKFLAVVESEVAVTEIDAKNRKQGMDKSIDKCHKNYSRLSLTPWRNTRALNTSCFSLRSSQAMMKDSGKEALFSNCKSNSSPHIQKESKADKTEAAVSIAGSRSDISEDFLPDTCSSALFTSSKDREAFITQKRTSGVLQQRNEISCRPSTSISDCSDLRSRYFTGCGQKLHSGTKGKLAIQNCSKKYSDASDLHKLENKHRWPKKEDDNFTICRKLTYPLETLCSSPESINTSKEMPYRPSNNNLTPSSSGDHEGSYNASAGLFDYIAKDKDIGTEITKIPQDNLLPLEVPCTENYPINENRGQPSQKPSLQSISPSRYSRPRSQSDSECDFEESQDFVPCSQSTPVAGFHQRIHGLNGASKILPSIYSNHNANYKNRKNSPLTGQYQATSACSKNVKAFRQKPESPFVSSLTQANVFNHCPAAESLGNDVDEWVPPTTKKVFISDILGFRVMGLRKCLDLHYSPDPKELPRKKLIKVTHKTNI
modifications: left off: small tags and cut ends
suppression of DNA synthesis [1]: effective | fraction of BrdU-positive cells in transfected cells, % of the value for the untransfected cells (NIH3T3 cells [2]): 24% | cell cycle phase of cells expressing the transfected gene (NIH3T3 cells [3]): arrested in G1 or early S phase | p53 levels in cells that received the gene (p53): increased
